Assay results reported in PMC2807882, “Conservation of DNA-binding specificity and oligomerisation properties within the p53 family”.

Columns and labels:
Test in all cases: fluorescence anisotropy, direct; 25 mM NaPi, 225 mM NaCl, 10% v/v glycerol, 5 mM DTT, 0.2 mg/mL BSA, 22°C; 20 nM labelled DNA; pH not stated for the binding assay
Conditions in all cases: protein: recombinant; tags: N-terminal 6xHis-lipoyl-TEV tag, cleaved; chain copies: 4; label: 5'-Alexa488
ΔNp63γ = target: T1, ΔNp63γ (Homo sapiens, UniProt Q9H3D4-6 1-393)
T1 sequence: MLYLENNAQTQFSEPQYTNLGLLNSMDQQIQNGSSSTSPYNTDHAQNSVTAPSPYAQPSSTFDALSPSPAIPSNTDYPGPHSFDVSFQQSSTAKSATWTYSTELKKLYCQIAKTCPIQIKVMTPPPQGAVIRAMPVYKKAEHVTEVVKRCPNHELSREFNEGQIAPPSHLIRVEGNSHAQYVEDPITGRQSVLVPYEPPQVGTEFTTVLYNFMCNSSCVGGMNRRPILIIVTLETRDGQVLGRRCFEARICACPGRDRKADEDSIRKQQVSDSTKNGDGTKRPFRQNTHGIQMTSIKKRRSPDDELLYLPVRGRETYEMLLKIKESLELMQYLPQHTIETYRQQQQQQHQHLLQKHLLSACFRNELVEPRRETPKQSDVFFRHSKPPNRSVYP

ΔNp63α = target: T2, ΔNp63α (Homo sapiens, UniProt Q9H3D4-2 1-586)
T2 sequence: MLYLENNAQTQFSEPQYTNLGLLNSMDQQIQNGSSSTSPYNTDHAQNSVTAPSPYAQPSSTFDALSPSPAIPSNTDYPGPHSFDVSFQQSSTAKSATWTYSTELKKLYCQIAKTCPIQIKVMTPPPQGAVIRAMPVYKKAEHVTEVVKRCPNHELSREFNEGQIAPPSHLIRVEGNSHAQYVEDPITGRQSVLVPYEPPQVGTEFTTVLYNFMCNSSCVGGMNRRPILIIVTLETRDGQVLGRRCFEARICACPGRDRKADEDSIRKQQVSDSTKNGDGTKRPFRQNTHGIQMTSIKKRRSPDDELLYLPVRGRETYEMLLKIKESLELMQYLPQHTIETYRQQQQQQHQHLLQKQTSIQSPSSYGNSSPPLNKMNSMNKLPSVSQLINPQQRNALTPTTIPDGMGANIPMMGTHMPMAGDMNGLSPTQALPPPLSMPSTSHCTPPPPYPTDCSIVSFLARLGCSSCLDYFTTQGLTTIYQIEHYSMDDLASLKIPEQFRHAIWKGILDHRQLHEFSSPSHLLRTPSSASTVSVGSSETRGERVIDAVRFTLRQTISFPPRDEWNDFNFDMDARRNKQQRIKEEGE

Hsp53 = Hsp53 (Homo sapiens, UniProt P04637 1-393)
Sequence of Hsp53 (P04637 whole entry): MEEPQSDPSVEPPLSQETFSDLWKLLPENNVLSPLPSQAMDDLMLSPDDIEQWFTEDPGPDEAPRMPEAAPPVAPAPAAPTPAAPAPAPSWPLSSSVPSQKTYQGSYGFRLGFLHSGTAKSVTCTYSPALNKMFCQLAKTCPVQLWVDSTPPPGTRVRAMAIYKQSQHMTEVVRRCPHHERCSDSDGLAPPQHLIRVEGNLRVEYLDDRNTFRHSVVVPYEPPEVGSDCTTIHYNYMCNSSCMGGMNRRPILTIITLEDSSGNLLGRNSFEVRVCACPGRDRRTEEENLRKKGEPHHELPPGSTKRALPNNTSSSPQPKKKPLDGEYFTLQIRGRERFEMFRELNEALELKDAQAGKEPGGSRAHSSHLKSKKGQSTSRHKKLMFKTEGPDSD

Dmp53 = target: T3, Dmp53 (Drosophila melanogaster, UniProt Q9N6D8 1-385)
T3 sequence: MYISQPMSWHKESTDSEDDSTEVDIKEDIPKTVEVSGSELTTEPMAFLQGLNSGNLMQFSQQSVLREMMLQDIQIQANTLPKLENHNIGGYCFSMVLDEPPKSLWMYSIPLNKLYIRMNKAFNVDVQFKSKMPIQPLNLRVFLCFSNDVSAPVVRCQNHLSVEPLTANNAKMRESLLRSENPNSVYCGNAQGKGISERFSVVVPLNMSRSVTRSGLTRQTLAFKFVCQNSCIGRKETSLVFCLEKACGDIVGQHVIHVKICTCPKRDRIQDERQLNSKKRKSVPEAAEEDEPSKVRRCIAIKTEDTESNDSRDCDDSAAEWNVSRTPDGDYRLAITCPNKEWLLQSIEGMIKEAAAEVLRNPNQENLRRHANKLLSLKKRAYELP

Xlp53 = Xlp53 (Xenopus laevis, UniProt Q7T1D0 1-362)
Sequence of Xlp53 (Q7T1D0 entry or part of it): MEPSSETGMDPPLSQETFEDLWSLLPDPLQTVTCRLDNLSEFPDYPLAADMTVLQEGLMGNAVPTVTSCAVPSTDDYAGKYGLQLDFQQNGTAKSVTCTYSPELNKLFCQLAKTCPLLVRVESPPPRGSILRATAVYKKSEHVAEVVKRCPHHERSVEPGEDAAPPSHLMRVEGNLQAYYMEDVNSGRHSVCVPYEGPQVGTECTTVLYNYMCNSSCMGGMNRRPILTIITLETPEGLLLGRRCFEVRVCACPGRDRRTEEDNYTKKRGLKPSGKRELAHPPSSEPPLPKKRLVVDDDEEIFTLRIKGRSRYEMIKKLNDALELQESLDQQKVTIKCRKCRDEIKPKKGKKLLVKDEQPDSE

B1: Ref_Alexa488 (dsDNA)
DNA 1: GGACATGTCCGGACATGTCC
DNA 2: GGACATGTCCGGACATGTCC
Kd (ΔNp63γ): -7.17 ± 0.02 log10(M)
Kd (ΔNp63α): -7.12 ± 0.01 log10(M)
Kd (Hsp53): -7.25 ± 0.03 log10(M)
Kd (Dmp53): -7.28 ± 0.03 log10(M)
Kd (Xlp53): -7.32 ± 0.02 log10(M)
